The supplement of paper PMC7877785
± gives the uncertainty stated by the source.

Test: self-splicing fitness, log relative to wild type (ln ratio); higher = more splicing; Tetrahymena group I intron in knt gene, E. coli kanamycin selection, DiMSum; sequences stand for … in CUCUCU…GGAGGGAAAAGUUAUCAGGCAUGCACCUGGUAGCUAGUCUUUAAACCAAUAGAUUGCAUCGGUUUAAAAGGCAAGACCGUCAAAUUGCGGGAAAGGGGUCAACAGCCGUUCAGUACCAAGUCUCAGGGGAAACUUUGAGAUGGCCUUGCAAAGGGUAUGGUAAUAAGCUGACGGACAUGGUCCUAACCACGCAGCCAAGUCCUAAGUCAACAGAUCUUCUGUUGAUAUGGAUGCAGUUCACAGACUAAAUGUCGGUCGGGGAAGAUGUAUUCUUCUCAUAAGAUAUAGUCGGACCUCUCCUUAAUGGGAGCUAGCGGAUGAAGUGAUGCAACACUGGAGCCGCUGGGAACUAAUUUGUAUGCGAAAGUAUAUUGAUUAGUUUUGGAGUACUCGUGGUCG
Summary of the method: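 The eight P1ex-region nucleotides of an intron in the knt kanamycin-resistance gene on pET-22b(+) were all randomised and the library put into E. coli BL21(DE3). Six replicate transformations were grown overnight at 37°C or 30°C on LB agar with or without 25 μg/mL kanamycin, together with 100 μg/mL carbenicillin, 50 μM IPTG and 0.2% rhamnose. Colonies were pooled and amplicon-sequenced on an Illumina HiSeq 2500. Fitness from DiMSum is the error-weighted combination of wild-type-normalised replicate fold changes, kanamycin over none.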

Sequence | self-splicing fitness (ln) (30 °C) | self-splicing fitness (ln) (37 °C)
CCUAAGCAAUAUUACGUAGU | -1.3 ± 0.061 | -0.474 ± 0.083
CCUAAGCAAUAUUACGUCAA | -2.65 ± 0.16 | -3.14 ± 0.21
CCUAAGCAAUAUUACGUCAG | -1.58 ± 0.12 | -0.812 ± 0.12
CCUAAGCAAUAUUACGUGUC | -3.86 ± 0.27 | -1.54 ± 0.12
CCUCAGCAAUAUUACGAAGC | -2.92 ± 0.15 | -2.44 ± 0.25
CCUCAGCAAUAUUACGAAUG | -1.01 ± 0.089 | -0.196 ± 0.1
CCUCAGCAAUAUUACGACUU | -3.69 ± 0.42 | -2.43 ± 0.26
CCUCAGCAAUAUUACGAGCU | -4.22 ± 0.37 | -1.9 ± 0.23
CCUCAGCAAUAUUACGAGGG | -4.16 ± 0.26 | -2.73 ± 0.28
CCUCAGCAAUAUUACGAUGG | -4.2 ± 0.19 | -2.69 ± 0.16
CCUCAGCAAUAUUACGAUUA | -2.62 ± 0.22 | -2.23 ± 0.19
CCUCAGCAAUAUUACGCAGU | -3.09 ± 0.22 | -1.67 ± 0.28
CCUCAGCAAUAUUACGCCCU | -2.29 ± 0.24 | -2.73 ± 0.48
CCUCAGCAAUAUUACGCGCA | -3.31 ± 0.27 | -2.74 ± 0.23
CCUCAGCAAUAUUACGCGGG | -4.06 ± 0.28 | -2.34 ± 0.29
CCUCAGCAAUAUUACGCGUC | -4.16 ± 0.46 | -2.18 ± 0.34
CCUCAGCAAUAUUACGCUCU | -4.29 ± 0.43 | –
CCUCAGCAAUAUUACGGACC | – | -3.01 ± 0.31
CCUCAGCAAUAUUACGGCCC | -4.21 ± 0.39 | –
CCUCAGCAAUAUUACGGGGA | -3.03 ± 0.14 | -2.1 ± 0.15
CCUCAGCAAUAUUACGGUCC | -4.07 ± 0.36 | –
CCUCAGCAAUAUUACGUACG | -1.32 ± 0.069 | -0.131 ± 0.084
CCUCAGCAAUAUUACGUCCG | -1.86 ± 0.072 | -0.0776 ± 0.11
CCUCAGCAAUAUUACGUCGA | -3.67 ± 0.27 | -2.28 ± 0.2
CCUCAGCAAUAUUACGUCGC | – | -3.77 ± 0.36

Sequence | self-splicing fitness (ln) (30 °C) | self-splicing fitness (ln) (37 °C)
CCUCAGCAAUAUUACGUGUA | -2.19 ± 0.13 | -2.16 ± 0.15
CCUCAGCAAUAUUACGUUAC | -3.54 ± 0.19 | -3.7 ± 0.36
CCUCAGCAAUAUUACGUUAG | -3.27 ± 0.15 | -2.14 ± 0.14
CCUCAGCAAUAUUACGUUUC | -3.04 ± 0.17 | -2.44 ± 0.2
CCUGAGCAAUAUUACGAAGU | – | -0.825 ± 0.19
CCUGAGCAAUAUUACGACGA | -2.99 ± 0.24 | -1.61 ± 0.17
CCUGAGCAAUAUUACGAUAU | -4.45 ± 0.37 | -2.39 ± 0.23
CCUGAGCAAUAUUACGCAAG | -3.97 ± 0.24 | -2.49 ± 0.19
CCUGAGCAAUAUUACGCUAU | -3.66 ± 0.2 | -3.09 ± 0.19
CCUGAGCAAUAUUACGCUCA | -1.37 ± 0.28 | -1.94 ± 0.38
CCUGAGCAAUAUUACGCUGC | -4.04 ± 0.37 | -2.34 ± 0.22
CCUGAGCAAUAUUACGGAGA | -2.39 ± 0.25 | -3.09 ± 0.35
CCUGAGCAAUAUUACGGCAU | -3.93 ± 0.23 | -4.08 ± 0.42
CCUGAGCAAUAUUACGGUUU | -3.26 ± 0.2 | -2.38 ± 0.19
CCUGAGCAAUAUUACGUACG | -2.08 ± 0.2 | -1.24 ± 0.22
CCUGAGCAAUAUUACGUACU | -2.04 ± 0.21 | -2.3 ± 0.3
CCUGAGCAAUAUUACGUCCG | -3.25 ± 0.24 | -1.93 ± 0.33
CCUGAGCAAUAUUACGUCGA | -3.41 ± 0.42 | -3.34 ± 0.33
CCUGAGCAAUAUUACGUGUG | -1.62 ± 0.058 | -1.18 ± 0.066
CCUUAGCAAUAUUACGAAUG | -1.27 ± 0.11 | -0.423 ± 0.1
CCUUAGCAAUAUUACGAUUG | -1.85 ± 0.098 | -0.965 ± 0.1
CCUUAGCAAUAUUACGCAUU | -4.02 ± 0.46 | –
CCUUAGCAAUAUUACGCCAG | – | -2.05 ± 0.45
CCUUAGCAAUAUUACGCCGA | -2.16 ± 0.35 | -1.98 ± 0.46
CCUUAGCAAUAUUACGCGCG | -2.71 ± 0.39 | -3.39 ± 0.42

Sequence | self-splicing fitness (ln) (30 °C) | self-splicing fitness (ln) (37 °C)
CCUUAGCAAUAUUACGCGUU | -3.55 ± 0.21 | -2.12 ± 0.16
CCUUAGCAAUAUUACGCUGC | -2.81 ± 0.28 | –
CCUUAGCAAUAUUACGCUUG | -3.86 ± 0.3 | -3.5 ± 0.37
CCUUAGCAAUAUUACGGAGG | -3.99 ± 0.41 | -3.11 ± 0.37
CCUUAGCAAUAUUACGGAGU | -3.24 ± 0.21 | -2.78 ± 0.19
CCUUAGCAAUAUUACGGCUG | -3.9 ± 0.19 | -2.39 ± 0.17
CCUUAGCAAUAUUACGGGCA | -3.91 ± 0.33 | -3.36 ± 0.35
CCUUAGCAAUAUUACGGGCG | -1.64 ± 0.083 | -0.95 ± 0.093
CCUUAGCAAUAUUACGGUAA | -2.78 ± 0.27 | -2.59 ± 0.35
CCUUAGCAAUAUUACGGUCU | -3.95 ± 0.25 | -3.77 ± 0.46
CCUUAGCAAUAUUACGGUUC | -2.91 ± 0.18 | -2.72 ± 0.39
CCUUAGCAAUAUUACGUCCG | -1.73 ± 0.11 | -0.989 ± 0.17
CCUUAGCAAUAUUACGUCGA | – | -2.67 ± 0.34
CCUUAGCAAUAUUACGUGCC | -4.23 ± 0.25 | -2.41 ± 0.28
CCUUAGCAAUAUUACGUUGA | -3.24 ± 0.21 | -3.02 ± 0.24
CCUUAGCAAUAUUACGUUUA | -3.23 ± 0.26 | -2.21 ± 0.2
CGAAAGCAAUAUUACGAAGA | -2.12 ± 0.16 | -0.849 ± 0.13
CGAAAGCAAUAUUACGAAUA | -2.47 ± 0.29 | -2.14 ± 0.2
CGAAAGCAAUAUUACGAAUC | -2.03 ± 0.45 | -1.87 ± 0.26
CGAAAGCAAUAUUACGACCU | -0.917 ± 0.079 | -0.386 ± 0.11
CGAAAGCAAUAUUACGAGGC | -3.72 ± 0.2 | -1.88 ± 0.21
CGAAAGCAAUAUUACGAUAC | -1.99 ± 0.18 | -2.11 ± 0.38
CGAAAGCAAUAUUACGCAUA | -3.13 ± 0.25 | -2.72 ± 0.2
CGAAAGCAAUAUUACGCCAG | -0.884 ± 0.14 | -0.307 ± 0.21
CGAAAGCAAUAUUACGCGCG | -2.64 ± 0.16 | -1.34 ± 0.17

Sequence | self-splicing fitness (ln) (30 °C) | self-splicing fitness (ln) (37 °C)
CGAAAGCAAUAUUACGGGCU | -2.74 ± 0.14 | -1.55 ± 0.17
CGAAAGCAAUAUUACGGGUA | -2.73 ± 0.16 | -2.57 ± 0.14
CGAAAGCAAUAUUACGGUAG | -0.561 ± 0.065 | -0.437 ± 0.085
CGAAAGCAAUAUUACGGUUG | -0.623 ± 0.057 | -0.494 ± 0.073
CGAAAGCAAUAUUACGUACC | -1.18 ± 0.13 | -0.845 ± 0.2
CGAAAGCAAUAUUACGUAUG | -1.15 ± 0.057 | -0.533 ± 0.083
CGAAAGCAAUAUUACGUGUA | -3 ± 0.13 | -2.35 ± 0.13
CGAAAGCAAUAUUACGUUAC | -3.15 ± 0.18 | -3.01 ± 0.26
CGACAGCAAUAUUACGAAAU | -3.15 ± 0.12 | -3.06 ± 0.19
CGACAGCAAUAUUACGAAGG | -1.94 ± 0.092 | -0.848 ± 0.13
CGACAGCAAUAUUACGAAUG | -1.1 ± 0.079 | -0.112 ± 0.1
CGACAGCAAUAUUACGAAUU | -3.51 ± 0.19 | -2.04 ± 0.18
CGACAGCAAUAUUACGAGCA | -2.11 ± 0.18 | -1.26 ± 0.16
CGACAGCAAUAUUACGAUAC | -3.71 ± 0.25 | -2.96 ± 0.27
CGACAGCAAUAUUACGAUCG | -3.43 ± 0.2 | -2.11 ± 0.2
CGACAGCAAUAUUACGAUGG | -0.855 ± 0.072 | -0.172 ± 0.094
CGACAGCAAUAUUACGCCAA | -2.18 ± 0.28 | -3.28 ± 0.37
CGACAGCAAUAUUACGCCGA | -2.36 ± 0.11 | -0.991 ± 0.094
CGACAGCAAUAUUACGCCGG | -0.394 ± 0.059 | -0.272 ± 0.067
CGACAGCAAUAUUACGCGCA | -1.17 ± 0.13 | -0.0102 ± 0.12
CGACAGCAAUAUUACGCGCC | -2.02 ± 0.13 | -0.187 ± 0.17
CGACAGCAAUAUUACGCGCG | -2.61 ± 0.19 | -1.8 ± 0.18
CGACAGCAAUAUUACGCGUU | -4.77 ± 0.26 | -3.29 ± 0.18
